Assay: yeast display, Sf9 membrane polyspecificity reagent, FACS + sequencing; frameworks hold sequencing errors
Method in brief: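 Synthetic nanobody libraries on Saccharomyces cerevisiae BJ5465 were galactose-induced for 36–48 hours, stained 1 hour at 4 °C with 10% biotinylated, detergent-solubilized Sf9 membrane reagent and enriched on streptavidin microbeads. FACS then separated cells into low and high (top ~1%) gates by anti-HA (expression) and streptavidin (reagent binding) fluorescence. Genes were colony-PCR amplified, MiSeq 2 × 250 sequenced and CDR-length filtered. A clone's polyreactivity label is that of its gate of origin.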

Sequence: QVQLVESGGGLVQAGGSLRLSCAASGRPFPGNAMGWYRPAPGKERELVAAISSSGGSTHYADSGKGRFTISRDTAKNTVYLQMNSLKPEDTAVYYCNARSIGYSYRYYDWGQGTQVTVSS
- polyreactivity (PSR sort gate): high polyreactivity

Sequence: QVQLVESGGGLVQAGGSLRLSCAASGRPFRGNAMGWYRQAPGKERQLVAAITGTGGSTYYADSVKGRFTISRDNAKNTVYLQMNSVKPEDTAVYYCAAVLRGHNGLNFEYWGQGTQVTVSS
- polyreactivity (PSR sort gate): high polyreactivity

Sequence: QVQLVESGGGLVQAGGSLRLSCAASGRPFYVYAMGWYRQAPGKERELVASIRRSGGITYYADSVKGRFTISRDNAKNTVYLQMNSLKPEDTAVYYCNARRGPGRREYDYWGQGTQVTVSS
- polyreactivity (PSR sort gate): high polyreactivity

Sequence: QVQLVESGGGLVQAGGSLRLSCAASGRRFVKYAMGWYRQAPGKERELVAAITKSGSSTYYSDSVKGRFTISRDNAKNTVYLQMNSLKPEDTAVYYCAALTISRSRTGYYWGQGTQVTVSS
- polyreactivity (PSR sort gate): low polyreactivity

Sequence: QVQLVESGGGLVQAGGSLRLSCAASGRSFAWYTMGWYRQAPGKERELVAAISGSGGSTYYADSVKGRFTISRDNAKNTVYLQMNSLKPEDSALYYGARRVDSYYGHTRFYYWGQGTQVTVSS
- polyreactivity (PSR sort gate): high polyreactivity

Sequence: QVQLVESGGGLVQAGGSLRLSCAASGRSFGTYAMGWYRQAPGKERELVAAISRSGGRTYYADSVKGRFTISRDNAKNTVYLQMNSLKPEDTAVYYCAAATGSVPPYDYWGQGTQVTVSS
- polyreactivity (PSR sort gate): high polyreactivity

Sequence: QVQLVESGGGLVQAGGSLRLSCAASGRSFVGNAMGWYRQAPGKERELVASITRGGRTNYADSVNGRFTISRDNAKNTVYLQMNSLKPEDTAVYYCNAPGVTRAYLVGYDYWGQGTQVTVSS
- polyreactivity (PSR sort gate): low polyreactivity

Sequence: QVQLVESGGGLVQAGGSLRLSCAASGRSIVGYTMGWYTQAPGKERELVAAITSGGSTYYADSVKGRFTISRDNAKNTVYLQMISLKPEDTAVYYCSAYVRYSTPGKLYQYGYWGQGTQVTVSS
- polyreactivity (PSR sort gate): high polyreactivity

Sequence: QVQLVESGGGLVQAGGSLRLSCAASGRSLRGYAMGWYRQAPGKERELVAAISRRGGSTRYADSVKGRFTISRDNAKNTVYLQMNSLKPEDTAVYYCAAPDFPKYYPTAYLQADEYWGQGTQVTVSS
- polyreactivity (PSR sort gate): high polyreactivity

Sequence: QVQLVESGGGLVQAGGSLRLSCAASGRTCPYYVMGWFRQAPGKERELVAAIRRTGGSTYYADSVKGRFTISRDNAKNTVYLQMNSLKPEDTAVYYFTKSHSILYEGGYDYWGQGTQVTVSS
- polyreactivity (PSR sort gate): low polyreactivity

Sequence: QVQLVESGGGLVQAGGSLRLSCAASGRTCRHNAMGWYRQAPGTERELVAAISSSGTNTHYADSVKGRFTISRDNAKNTVYLQMNSLKPEDTAVYYCAADRWGARRKQYHENGYWAQGTQVTVSS
- polyreactivity (PSR sort gate): high polyreactivity

Sequence: QVQLVESGGGLVQAGGSLRLSCAASGRTFAANTMGWYRQAPGKERELVAAINAGGSTYYADSVKGRFTISRDTAKNTVYLQMNSLKPEDTAVYYCAAKGSGYYGRQRIYSYTYDYWGQGTQVTVSS
- polyreactivity (PSR sort gate): high polyreactivity

Sequence: QVQLVESGGGLVQAGGSLRLSCAASGRTFAAYAMGWYRQAPGKERELGAAISSSSGNTYYADSVKGRFTISRDNAKNTVYLQMYSLKPEDTAVYYCNAQRRFNANYWYDYWGQGTQVTVAS
- polyreactivity (PSR sort gate): high polyreactivity

Sequence: QVQLVESGGGLVQAGGSLRLSCAASGRTFAAYAMGWYRQAPGKERELVATIRRGGTTDYADSVKGRFTISRDNAKNTVYLQMNSLKPEDTAVYYCNARSRTYRTRRYDYWGQGTQVTVSS
- polyreactivity (PSR sort gate): high polyreactivity

Sequence: QVQLVESGGGLVQAGGSLRLSCAASGRTFAHYTMGWYRQEPGKERELVAGITRGGSTYYADSVKGRFTISRDNAKNNVYLQMNSVKPEDTAVYYCNAVTNYFYRRMEYWGQGTQVTVSS
- polyreactivity (PSR sort gate): high polyreactivity

Sequence: QVQLVESGGGLVQAGGSLRLSCAASGRTFAINAMGWYRQATAKERELVADITTDGYTYYADSVKGRFTISRDNAKNTVYLQMNSLKPEDTAVYYCATDSLDYFIRFKQFGYWGQGTQVTVSS
- polyreactivity (PSR sort gate): low polyreactivity

Sequence: QVQLVESGGGLVQAGGSLRLSCAASGRTFAINTMGWYRQAPGKEREFVASITRRGGSTYYADSVKVRFTISLDNAKNTVYFQMNSLKPEDTAVYYCNAELRWRLRARAAYYYWGQGSQVTVSS
- polyreactivity (PSR sort gate): high polyreactivity

Sequence: QVQLVESGGGLVQAGGSLRLSCAASGRTFAIYAMGWYRQAPGKERELVASISSSGDRTYYADSVKGRFTISRDNAKNTVYLQMNSLKPEDTAVYYCAARWRYTYYYWGQGTQVTVSS
- polyreactivity (PSR sort gate): high polyreactivity

Sequence: QVQLVESGGGLVQAGGSLRLSCAASGRTFAIYTMVWSRQAPGKERELVATISGSAGNTYYADSVKGRFTISRDNAKNTVYLQMNSLKPEDTAVYNCAARQRKARQIVLLDYWGQGTQVTVSS
- polyreactivity (PSR sort gate): high polyreactivity

Sequence: QVQLVESGGGLVQAGGSLRLSCAASGRTFALYAMGWYRQAPGKERELVAAISSGGSTYYADSVKGRFTISRDNAKNTVYLQMNSLKPEDTAVYYCNARPKWGNRQSVRGYYILSPGGRMNYWGQGTQVTVSS
- polyreactivity (PSR sort gate): high polyreactivity

Sequence: QVQLVESGGGLVQAGGSLRLSCAASGRTFANNAMGWYRQAPGKERELVAAISSSDDSTYYADSVKGRFTISRDNAKNTVYLQMNILKPEDTAVYYCAAPYPGHQSRFGYESWGQGTQVTVSS
- polyreactivity (PSR sort gate): low polyreactivity

Sequence: QVQLVESGGGLVQAGGSLRLSCAASGRTFANYAMGWSRQAPGKERELVAAISSGGNTYYADSVKGRFTISRDNAKNTVYLQMNSLKPEDTSVYYCNADYLIKYDYWGKGTQVTVSS
- polyreactivity (PSR sort gate): high polyreactivity

Sequence: QVQLVESGGGLVQAGGSLRLSCAASGRTFANYAMGWYRQAPGKERELVATITWSDGSTYADSVKGRFTISRDNAKNTVYLQMNSLKPEDTAVYYCATRRYGKVFYPSQYTRYDYWGQGTQVTVSS
- polyreactivity (PSR sort gate): high polyreactivity

Sequence: QVQLVESGGGLVQAGGSLRLSCAASGRTFAPNAMGWYRQAPGKEREMVAAISWSGTSTYYADSVKGRFTISRDNAKNTVYLQMNSLKPEDTAVYYCAADLEGSVGSPLTYDYWGQGTQVTVSS
- polyreactivity (PSR sort gate): low polyreactivity

Sequence: QVQLVESGGGLVQAGGSLRLSCAASGRTFAPNTMGWYRQAPGKERELVATITVSGGITYADSVKGRFTISRDNAKNTVYLQMNSLKPEDTAVYYCAARTPGWYLPRDYWGQGTQVTVSS
- polyreactivity (PSR sort gate): low polyreactivity

Sequence: QVQLVESGGGLVQAGGSLRLSCAASGRTFAQYGMGWYRQAPGKERELVAAISRSGGRTYYADSVKGRFTISRDNAKNTVYLQMNSLKPEDTAVYYCAARAYLISSSTPFWTGYDSWGHGTQVTVSS
- polyreactivity (PSR sort gate): low polyreactivity

Sequence: QVQLVESGGGLVQAGGSLRLSCAASGRTFARYAKGWYRQAPGKERELVAVISRTGSTYYADSVKGRFTISRDNAKNTVYLQMNSLKPEDTAVYYCATVYYYLAYGWSYSDMDYWGQGTQVTVSS
- polyreactivity (PSR sort gate): high polyreactivity

Sequence: QVQLVESGGGLVQAGGSLRLSCAASGRTFARYAMGWYRQAPGKERELVAAISWSGGRTYYADSVKGRFTISRDNAKNTVYLQMNSLKPEDTAVYYCAASLYRRQMDHWGQGTQVTVSS
- polyreactivity (PSR sort gate): high polyreactivity

Sequence: QVQLVESGGGLVQAGGSLRLSCAASGRTFARYDKGWYRQAPGKERELVAGINGDGGSTNYADSVKGRFTISRDNAKNTVYLQMNSLKPEDTAVFYCNVDQEDRKLHVSIKQLSDHWGQGTQVTVSS
- polyreactivity (PSR sort gate): low polyreactivity

Sequence: QVQLVESGGGLVQAGGSLRLSCAASGRTFASNAMGWSRQAPGKERELVAAISVTGGRTYYADSVKGRFTISRDNAKNTVYLLMNSLKPEDTAVYYCAKVTKLDPYSYDYWGQGTQVTVSS
- polyreactivity (PSR sort gate): low polyreactivity

Sequence: QVQLVESGGGLVQAGGSLRLSCAASGRTFASNAMGWYTQAPGKERELVAAITISGGRTYYADSVKGRFTISRDNAKNTVYLQMNSLIPEDTAVYYCAAAKHSWRPSYYWGGYWGQGTQVTVSS
- polyreactivity (PSR sort gate): low polyreactivity

Sequence: QVQLVESGGGLVQAGGSLRLSCAASGRTFASYAMGWYRQAPGKERELVAVISRGGSNTNYADSVTGRFTISRDNAKNTVYLQMNSLKPEDTAVYYCADLAFKRYNPGGYDYWGQGTQVTVSS
- polyreactivity (PSR sort gate): high polyreactivity

Sequence: QVQLVESGGGLVQAGGSLRLSCAASGRTFATYAMGWYRQAPGKERELVAAITSGGSTNYADSVKGRFTISRDNAKNTVYLQMNSLKPEDTAVYYCNAYKTNRGSGPWYTGRYDYWGQGTQVTVSS
- polyreactivity (PSR sort gate): low polyreactivity

Sequence: QVQLVESGGGLVQAGGSLRLSCAASGRTFAVNVMGWYIPAPGKERELVAAIDFDDGITYYADSVKGRFTISRDNAKNTVYLQMNSLKPEDTAVYYCAAEFVYFGSDYYYWGQGTQVTVSS
- polyreactivity (PSR sort gate): high polyreactivity

Sequence: QVQLVESGGGLVQAGGSLRLSCAASGRTFAWYAMGWYRQAPGKERELVAAITTRGSGTYYADSVKGRFTISRDNAKNTVYIQMNSLKPEDTAVYYCAKDPITVTTVDERVYYWGQGTQVTVSS
- polyreactivity (PSR sort gate): low polyreactivity

Sequence: QVQLVESGGGLVQAGGSLRLSCAASGRTFAWYAMGWYRQAPGKERELVAAITTRGSGTYYADSVKGRFTISRDNAKNTVYLQMNSLKPEDTAVYYCAKDPITATTLDERVFYWGQGTQVTVSS
- polyreactivity (PSR sort gate): low polyreactivity

Sequence: QVQLVESGGGLVQAGGSLRLSCAASGRTFAWYTMGWYRQAPGKERELVASITKRGGRTYYADSVKGRFTISRDNAKNTVYLQMNSLKPEDTAVYYCAAGASQGRGTVTFDYWGQGTQVTVSS
- polyreactivity (PSR sort gate): high polyreactivity

Sequence: QVQLVESGGGLVQAGGSLRLSCAASGRTFAYNAMGWYRQAPGKDRELVAAITRRGGSTYYADSVKGRFTISRDNAKNTVYLQMNSLKPEDTAVYDCAKVLGGLPHGEVLDEYDYWGQGTQVTVSS
- polyreactivity (PSR sort gate): low polyreactivity

Sequence: QVQLVESGGGLVQAGGSLRLSCAASGRTFAYNAMGWYRQAPGKERELVADITWSGDSTYYADSVKGRFTISRDNAKNTVYLQMNSLKPEDTAVYYCAADYFGGPSYEFDYWGQGTQVTVSS
- polyreactivity (PSR sort gate): low polyreactivity

Sequence: QVQLVESGGGLVQAGGSLRLSCAASGRTFAYTDMGWYRQAPGNERELVAAISWSDGTTYYADSVKGRFTISRDNAKNTVYLQMNSLKPEDTAVYYCAAESYPSEVASYVSEYDYWGQGTQVTVSA
- polyreactivity (PSR sort gate): low polyreactivity

Sequence: QVQLVESGGGLVQAGGSLRLSCAASGRTFAYYAMGWYRQAPGTERELVAGITYSGGRTYYADSVKGRFTISRDNAKNTVYLQMNSLKPEDTAVYYCATRWPSKPTSRAMYYWGQGTQVTVSS
- polyreactivity (PSR sort gate): high polyreactivity

Sequence: QVQLVESGGGLVQAGGSLRLSCAASGRTFDAYAMGRYRQAPGKERELVARITSGGSTKYADSVKGRFTISRDNAKNTVYLQMNSLKPEDTAVYYCAAAQYWPSFFSNRVYYRNDYWGQGTQVTVSS
- polyreactivity (PSR sort gate): high polyreactivity
